US20190127461A1 (ORDER MADE MEDICAL RESEARCH, published 2019)

Legend:
[1] = target: T1, ICD4 (region consisting of amino acids at positions 196 to 299 of MCT5) (human); test: ELISA, hybridoma culture supernatant on immobilized ICD4, POD-labeled anti-mouse immunoglobulin
T1 construct: Immunogen and ELISA coating antigen
T1 chain: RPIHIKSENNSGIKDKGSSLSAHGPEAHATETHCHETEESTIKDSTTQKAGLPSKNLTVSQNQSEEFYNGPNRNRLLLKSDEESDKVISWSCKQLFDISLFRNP
Procedure: Blood samples which had been collected from mice through their tail veins and diluted 1/160,000 with PBS(-), or alternatively, culture supernatants collected from wells in which hybridomas were growing were analyzed for their antibody titer. ICD4 was diluted with PBS(-) and dispensed into 96-well ELISA plates (Nunc) in an amount of 50 ng per well, and immobilized onto the plate surface by being allowed to stand at room temperature for 1 hour. Then, after the plates were washed three times with 350 μL of TBS-T (25 mM Tris, 150 mM NaCl, 0.05% (v/v) Tween 20, pH 7.4), PBS-T containing 5% skimmed milk was dispensed in a volume of 300 μL per well to conduct blocking for 1 hour at room temperature. After washing with TBS-T, the diluted blood samples or the culture supernatants were dispensed into the ICD4-immobilized ELISA plates and reacted for 1 hour at room temperature. After washing with TBS-T, a 10,000-fold dilution of peroxidase (hereinafter abbreviated as POD)-labeled anti-mouse immunoglobulin antibody (BETHYL) was dispensed in a volume of 100 μL per well and reacted for 1 hour at room temperature. […] After the reaction was stopped with 1.5 N sulfuric acid, the plates were measured for absorbance at 490 nm with a plate reader (Molecular Devices). […]

[2] = target: T2, MCT5 (Monocarboxylate transporter 5) (human, UniProt O15374 1-487); test: flow cytometry on intact HCT116 cells, Alexa 488-labeled secondary antibody; negative control is cells without IMI4C4a
T2 construct: Membrane transporter on intact human cancer cells: MCF7-MCT5 (overexpressing), and MDA-MB231, HCT116 and SK-BR3 (endogenous); also called native MCT5; MCT5 isoform 1
Procedure: HCT116 cells (which are human colorectal cancer cells) were cultured to reach 90% confluency. After being washed twice with PBS(-), the cells were collected with Accutase (Life Technologies) and suspended at 4×10⁵ cells in […] of PBS(-) containing 1% FBS. To this suspension, the antibody IMI4C4a was added at a final concentration of […] and reacted on ice for 60 minutes. For use as a control, a cell suspension free from the antibody IMI4C4a was prepared.

T2 sequence (O15374 whole entry, canonical isoform): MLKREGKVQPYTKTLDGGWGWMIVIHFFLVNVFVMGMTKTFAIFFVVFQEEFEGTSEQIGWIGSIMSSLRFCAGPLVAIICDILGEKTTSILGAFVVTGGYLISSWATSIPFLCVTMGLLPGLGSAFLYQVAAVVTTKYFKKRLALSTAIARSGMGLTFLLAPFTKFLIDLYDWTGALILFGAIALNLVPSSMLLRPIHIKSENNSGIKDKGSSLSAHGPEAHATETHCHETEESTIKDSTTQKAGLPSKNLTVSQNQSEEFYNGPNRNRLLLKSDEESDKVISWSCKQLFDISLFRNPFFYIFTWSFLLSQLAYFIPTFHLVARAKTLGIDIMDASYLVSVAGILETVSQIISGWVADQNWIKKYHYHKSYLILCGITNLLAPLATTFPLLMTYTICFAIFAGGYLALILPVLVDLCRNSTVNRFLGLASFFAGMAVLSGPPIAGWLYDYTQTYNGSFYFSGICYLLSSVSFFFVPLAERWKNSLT

B1: anti-MCT5 monoclonal antibody of clone No. IMI4C4a (antibody, V domains shown)
VH: EVQLQQSGAELVRPGALVKLSCKASGFNIKDYYMFWVKQRPEQGLEWIGWIDPENGNTIFDPKFQGKASITADTSSNTAYLQLSSLTSEDTAVYYCARMITTYYYAMDFWGQGTSVTVSS
VL: QLVLTQSSSASFSLGASAKLTCTLSSQHSTYTIEWYQQQPLKPPKYVMELKKDGSHSTGDGIPDRFSGSSSGADRYLSVSSIQPEDEAIYICGVGYTIKEQFVYVFGGGTK
notes: Mouse monoclonal antibody from a hybridoma, detected with anti-mouse IgG; also called antibody IMI4C4a; Mouse-Mouse hybridoma IMI4C4a
B1: binds [1]; binds [2].
